In patent publication US20250090695A1, “IMMUNOSTIMULANT-CYTOTOXIC CONJUGATE COMPOSITION AND METHODS FOR CANCER TREATMENT” (The Research Foundation for the State University of New York, priority 2022, published 2025):

What was measured:
[1] = OLINDA dosimetry to adult male from mouse biodistribution
T-cells (CD3) = assay: Immuno-PET ROI analysis of 89Zr-DFO-anti-CD3 after therapy (tumor infiltrating T-cells); assay type: in vivo, murine subjects
Description: FIG. 13A-13C describes a method and results for T-cell detection using immuno-positron emission tomography (PET).
FIG. 14A-14D show graphical representations of tumor infiltrating T-cell analysis after administration of a therapeutic compound or control. Infiltration was measured using immuno-positron emission tomography (PET).

RM1-PGLS tumors = assay type: in vivo, murine subjects
Description: FIG. 11A-11C show a visual schematic of RM1-PGLS tumor insertion in mice followed by T-cell population analysis (FIG. 11A), and tumor efficacy study analysis for in vivo tumor treatment with experimental ^177Lu-RIMS-1 compound compared with control compounds: ^177Lu-PSMA-617, unlabeled Lu-RIMS, and saline (FIG. 11B) measuring tumor volume (left), and percent survival (right).
Murine subjects were treated with RIMS compounds and tumor volume (FIG. 11B, left), subject viability measured as percent survival (FIG. 11B, right), subject weight (FIG. 11C), were described and analyzed as shown in FIGS. 11A-11C. Median overall survivability (OS) in murine subjects treated with RIMS compounds and control therapies.

in vivo = details: C57BL/6J, mouse, total radioactivity
[2] = Biodistribution Blood (% ID/g ± SD)
[3] = Biodistribution Bone (% ID/g ± SD)

Compound: CCCCc1nc2c(N)nc3ccccc3c2n1Cc1ccc(CNC(=O)OCc2ccc(NC(=O)[C@H](C)NC(=O)[C@@H](NC(=O)CCCCC(=O)N[C@@H](CCCCNC(=O)CN3CCN(CC(=O)O)CCN(CC(=O)O)CCN(CC(=O)O)CC3)C(=O)NC[C@H]3CC[C@H](C(=O)N[C@@H](Cc4ccc5ccccc5c4)C(=O)NCCCC[C@H](NC(=O)N[C@@H](CCC(=O)O)C(=O)O)C(=O)O)CC3)C(C)C)cc2)cc1 [^177Lu-RIMS-1, metal not drawn]
- OLINDA dosimetry to Adult Male, Adrenals ([1]; Target Organ Adrenals): 8.71 μSv/MBq
- OLINDA dosimetry to Adult Male, Brain ([1]; Target Organ Brain): 0.02 μSv/MBq
- OLINDA dosimetry to Adult Male, Esophagus ([1]; Target Organ Esophagus): 2.03 μSv/MBq
- OLINDA dosimetry to Adult Male, Eyes ([1]; Target Organ Eyes): 0.02 μSv/MBq
- OLINDA dosimetry to Adult Male, Gallbladder Wall ([1]; Target Organ Gallbladder Wall): 7.09 μSv/MBq
- OLINDA dosimetry to Adult Male, Heart Wall ([1]; Target Organ Heart Wall): 16.60 μSv/MBq
- OLINDA dosimetry to Adult Male, Kidneys ([1]; Target Organ Kidneys): 262.00 μSv/MBq
- OLINDA dosimetry to Adult Male, Left Colon ([1]; Target Organ Left Colon): 1.26 μSv/MBq
- OLINDA dosimetry to Adult Male, Liver ([1]; Target Organ Liver): 219.00 μSv/MBq
- OLINDA dosimetry to Adult Male, Lungs ([1]; Target Organ Lungs): 15.10 μSv/MBq
- OLINDA dosimetry to Adult Male, Osteogenic Cells ([1]; Target Organ Osteogenic Cells): 3.70 μSv/MBq
- OLINDA dosimetry to Adult Male, Pancreas ([1]; Target Organ Pancreas): 2.49 μSv/MBq
- OLINDA dosimetry to Adult Male, Prostate ([1]; Target Organ Prostate): 0.34 μSv/MBq
- OLINDA dosimetry to Adult Male, Rectum ([1]; Target Organ Rectum): 0.25 μSv/MBq
- OLINDA dosimetry to Adult Male, Red Marrow ([1]; Target Organ Red Marrow): 1.39 μSv/MBq
- OLINDA dosimetry to Adult Male, Right Colon ([1]; Target Organ Right Colon): 1.94 μSv/MBq
- OLINDA dosimetry to Adult Male, Salivary Glands ([1]; Target Organ Salivary Glands): 0.05 μSv/MBq
- OLINDA dosimetry to Adult Male, Small Intestine ([1]; Target Organ Small Intestine): 3.60 μSv/MBq
- OLINDA dosimetry to Adult Male, Spleen ([1]; Target Organ Spleen): 228.00 μSv/MBq
- OLINDA dosimetry to Adult Male, Stomach Wall ([1]; Target Organ Stomach Wall): 2.02 μSv/MBq
- OLINDA dosimetry to Adult Male, Thymus ([1]; Target Organ Thymus): 0.95 μSv/MBq
- OLINDA dosimetry to Adult Male, Thyroid ([1]; Target Organ Thyroid): 0.36 μSv/MBq
- OLINDA dosimetry to Adult Male, Today Body ([1]; Target Organ Total Body): 7.73 μSv/MBq
- OLINDA dosimetry to Adult Male, Tumor ([1]; Target Organ Tumor): 237.00 μSv/MBq
- OLINDA dosimetry to Adult Male, Urinary Bladder Wall ([1]; Target Organ Urinary Bladder Wall): 10.90 μSv/MBq
- % Injected Dose/cc of 89Zr-DFO-anti-CD3 (ROI) (T-cells (CD3); Blood, 8 days after administration of therapy): 7.95 ± 0.75 % Injected Dose/cc
- % Injected Dose/cc of 89Zr-DFO-anti-CD3 (ROI) (T-cells (CD3); Blood, 9 days after administration of therapy): 7.075 ± 0.94 % Injected Dose/cc
- % Injected Dose/cc of 89Zr-DFO-anti-CD3 (ROI) (T-cells (CD3); Blood, 10 days after administration of therapy): 4.98 ± 0.61 % Injected Dose/cc
- % Injected Dose/cc of 89Zr-DFO-anti-CD3 (ROI) (T-cells (CD3); Blood, 11 days after administration of therapy): 4.33 ± 1.40 % Injected Dose/cc
- % Injected Dose/cc of 89Zr-DFO-anti-CD3 (ROI) (T-cells (CD3); Blood, 12 days after administration of therapy): 3.07 ± 1.23 % Injected Dose/cc
- % Injected Dose/cc of 89Zr-DFO-anti-CD3 (ROI) (T-cells (CD3); Spleen, 8 days after administration of therapy): 15.65 ± 0.96 % Injected Dose/cc
- % Injected Dose/cc of 89Zr-DFO-anti-CD3 (ROI) (T-cells (CD3); Spleen, 9 days after administration of therapy): 19.39 ± 3.46 % Injected Dose/cc
- % Injected Dose/cc of 89Zr-DFO-anti-CD3 (ROI) (T-cells (CD3); Spleen, 10 days after administration of therapy): 18.45 ± 1.30 % Injected Dose/cc
- % Injected Dose/cc of 89Zr-DFO-anti-CD3 (ROI) (T-cells (CD3); Spleen, 11 days after administration of therapy): 19.06 ± 2.34 % Injected Dose/cc
- % Injected Dose/cc of 89Zr-DFO-anti-CD3 (ROI) (T-cells (CD3); Spleen, 12 days after administration of therapy): 18.54 ± 1.04 % Injected Dose/cc
- % Injected Dose/cc of 89Zr-DFO-anti-CD3 (ROI) (T-cells (CD3); Tumor, 8 days after administration of therapy): 15.85 ± 3.12 % Injected Dose/cc
- % Injected Dose/cc of 89Zr-DFO-anti-CD3 (ROI) (T-cells (CD3); Tumor, 9 days after administration of therapy): 14.94 ± 2.65 % Injected Dose/cc
- % Injected Dose/cc of 89Zr-DFO-anti-CD3 (ROI) (T-cells (CD3); Tumor, 10 days after administration of therapy): 13.74 ± 3.74 % Injected Dose/cc
- % Injected Dose/cc of 89Zr-DFO-anti-CD3 (ROI) (T-cells (CD3); Tumor, 11 days after administration of therapy): 12.20 ± 4.43 % Injected Dose/cc
- % Injected Dose/cc of 89Zr-DFO-anti-CD3 (ROI) (T-cells (CD3); Tumor, 12 days after administration of therapy): 11.83 ± 5.22 % Injected Dose/cc
- Relative body weight (RM1-PGLS tumors; mouse, in vivo): decrease in relative body weight
- Median OS (RM1-PGLS tumors; overall survival post treatment, RM1-PGLS tumors, P < 0.0007 printed for 177Lu-RIMS-1): 30 days
- tissue uptake at 2 h (in vivo; [2]): 2.28 ± 0.29 %ID/g
- tissue uptake at 24 h (in vivo; [2]): 0.11 ± 0.01 %ID/g
- tissue uptake at 72 h (in vivo; [2]): 0.2 %ID/g
- tissue uptake at 2 h (in vivo; [3]): 1.03 ± 0.43 %ID/g
- tissue uptake at 24 h (in vivo; [3]): 0.24 ± 0.1 %ID/g
- tissue uptake at 72 h (in vivo; [3]): 0.14 ± 0.02 %ID/g
- tissue uptake at 2 h (in vivo; Biodistribution Heart (% ID/g ± SD)): 0.83 ± 0.09 %ID/g
